Common to all, as to assay: cell-based or functional assay
Assay [1] has as its target human GFRAL and human RET on HEK293 cells (human) (UniProt Q6UXV0).
Assay [2] addresses IL-2 receptor-dimer pair of the PathHunter IL-2 BioAssay cells.
In assay [3] the target is human CNTF receptor (CNTFR) on IMR-32 cells (human) (UniProt P26992).
The target of assay [4] is human ErbB4 receptor (NCBI Ref. Seq. No. NP_001036064.1) (human) (UniProt Q15303).

Chain of human CNTF receptor (CNTFR) on IMR-32 cells (human) (P26992 23-342): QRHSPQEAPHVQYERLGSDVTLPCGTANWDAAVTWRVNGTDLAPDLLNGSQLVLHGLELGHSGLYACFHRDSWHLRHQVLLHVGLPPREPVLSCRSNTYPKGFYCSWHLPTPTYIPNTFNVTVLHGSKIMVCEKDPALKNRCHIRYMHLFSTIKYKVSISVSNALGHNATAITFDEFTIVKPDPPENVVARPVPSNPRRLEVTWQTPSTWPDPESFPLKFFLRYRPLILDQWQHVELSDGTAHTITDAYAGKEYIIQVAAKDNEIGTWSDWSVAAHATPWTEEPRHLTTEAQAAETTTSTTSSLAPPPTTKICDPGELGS

In assay [1], “Human GDF15 (from UniProt Q99988 197-308) (ligand)” came in with a hGFRAL/RET EC50 (pM), p-ERK1/2 AlphaLISA of 2.85 pM.
The substance “Human IL-2 (reference standard of the PathHunter IL-2 BioAssay Kit) (from UniProt P60568 21-153) (ligand)” yielded an EC50 (nM), PathHunter IL-2 BioAssay in assay [2] of 0.13 nM.
Take “human CNTF (R&D Systems; Cat #257-NT-010) (from UniProt P26441 2-200) (ligand)”: the hCNTFR EC50 pM GeoMean (pSTAT3 in IMR-32 cells) in assay [3] is 3.5 pM.
“rhNRG-1 (eurofins cat #92-1091) (from UniProt Q02297 177-241) (ligand)”: in assay [4], the EC50 (ng/mL), PathHunter ErbB4/ErbB4 dimerization assay is 16.5 ng/mL.

(Values after US20240316154A1.)
